Measured values: PMC2973827

Molecular target: SARS-CoV nsp12 (RdRp) (SARS-coronavirus, UniProt P0C6X7 4370-5301)
Experiment: EMSA; no Zn2+
Conditions: protein: recombinant; tags: C-terminal His6 (plasmid pASK3-Ub-nsp12-CHis6, ubiquitin fusion vector); label: 5' 32P

B1: SAV557R/SAV481R primed template duplex (dsRNA)
RNA 1: GCUAUGUGAGAUUAAGUUAU
RNA 2: UUUUUUUUUUAUAACUUAAUCUCACAUAGC
  binding result: binds
